Experimental data reported in patent US20230303685A1 (ELECTRA THERAPEUTICS, published 2023).
Where a chain is given by its changes, count along the chain named. Each block holds one binder with its values, some of them ahead of it.

Columns and labels:
[1] = molecular target: T1, human SIRPα V1-His monomer (human, UniProt P78324 31-373, limits assumed); assay: BLI (Octet); antibody on anti-mouse IgG capture tip, SIRP-His monomer at 100, 33.3, 11.1 nM, 1:1 fit, mean KD
T1 construct: 'SIRP-His monomer protein' of the Octet assay; also called SIRP-His; not shown: His tag
Method: (§1) Select SIRP antibodies were tested for their affinities to human SIRPα, SIRPβ1, and SIRPγ using a biolayer interferometry (BLI) Octet system (Pall ForteBio). Each SIRP antibody with rat or mouse Fc was immobilized on a biosensor tip by an anti-mouse IgG capture (AMC). Antibodies with human Fc were digested with gingipain K enzyme to yield monomeric F(ab′), biotinylated, then coated onto streptavidin biosensors. […] The biosensors were then exposed to wash buffer to measure off-rate kinetics. The resulting kinetic data were analyzed and fitted using a 1:1 binding model with kₒₙ and kdis fitted separately at each SIRP-His protein concentration. KD affinities were calculated as kdis to kₒₙ ratio at each concentration of SIRP-His and averaged.

human SIRPγ-His monomer [2] = molecular target: T2, human SIRPγ-His monomer (human); assay: as above
T2 construct: 'SIRP-His monomer protein' of the Octet assay; also called SIRP-His; not shown: His tag
Method: as §1

Human SIRPβ1/DAP12 CHO = molecular target: T3, Human SIRPβ1/DAP12 CHO; assay: flow cytometry, stably transfected CHO cells, antibody titrated, labelled anti-rat or anti-mouse IgG, MFI
T3 construct: also called human SIRPβ1 on CHO cells co-transfected with DAP12; copies: 1 + 2
T3 sequence (DAP12, as listed by the source limits assumed): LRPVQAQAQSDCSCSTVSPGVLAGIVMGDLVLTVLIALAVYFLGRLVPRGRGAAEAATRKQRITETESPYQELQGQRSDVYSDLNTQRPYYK
Method: (§2) Selected antibodies were tested for binding to stably transfected human SIRPα, SIRPβ1 (co-transfected with DAP12), or SIRPγ Chinese hamster ovary (CHO) cells via flow cytometry. A titration of SIRP antibodies was added to the cells and detected using a fluorescently labelled secondary antibody. Graph depicts the median fluorescence intensity (MFI) at each concentration.

Human SIRPγ CHO [3] = molecular target: T4, Human SIRPγ CHO; assay: as above
T4 construct: also called human SIRPγ on CHO cells
T4 chain: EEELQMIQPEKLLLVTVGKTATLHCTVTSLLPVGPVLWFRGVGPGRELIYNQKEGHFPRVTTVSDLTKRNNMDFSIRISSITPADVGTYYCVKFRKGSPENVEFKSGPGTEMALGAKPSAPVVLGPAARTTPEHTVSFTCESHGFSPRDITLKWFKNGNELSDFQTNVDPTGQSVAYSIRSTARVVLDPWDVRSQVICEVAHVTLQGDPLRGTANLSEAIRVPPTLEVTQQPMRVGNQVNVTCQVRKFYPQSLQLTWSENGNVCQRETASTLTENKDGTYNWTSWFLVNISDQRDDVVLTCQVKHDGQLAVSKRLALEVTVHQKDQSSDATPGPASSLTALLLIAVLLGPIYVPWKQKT
Method: as §2

Human SIRPβ1 = molecular target: T5, Human SIRPβ1; assay: ELISA, extracellular domain coated at 2 µg/mL, purified antibody titrated, anti-rat or anti-mouse IgG, chemiluminescence
T5 construct: also called human SIRPβ1 extracellular domain, plate-coated
T5 chain: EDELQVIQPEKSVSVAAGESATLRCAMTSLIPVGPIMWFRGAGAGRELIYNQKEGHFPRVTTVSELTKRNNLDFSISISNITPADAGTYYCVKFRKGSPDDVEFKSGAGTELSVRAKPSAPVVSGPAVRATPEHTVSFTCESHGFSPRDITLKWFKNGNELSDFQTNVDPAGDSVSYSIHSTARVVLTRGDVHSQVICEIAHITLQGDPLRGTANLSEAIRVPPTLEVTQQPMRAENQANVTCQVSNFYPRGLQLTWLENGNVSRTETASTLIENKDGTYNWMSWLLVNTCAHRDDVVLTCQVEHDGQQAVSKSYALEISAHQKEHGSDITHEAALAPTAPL
Method: (§3) Select SIRP antibodies were purified by Protein G from hybridoma supernatants and analyzed in a titration via ELISA. Briefly, 2 μg/mL of extracellular domain of each of the SIRPs was coated onto high protein-binding plates and blocked. Purified antibodies were added in a titration to the coated plates. The antibodies were detected by an anti-rat IgG or an anti-mouse IgG antibody and a chemiluminescent substrate.

Human SIRPγ [4] = molecular target: T6, Human SIRPγ; assay: as above
T6 construct: also called human SIRPγ extracellular domain, plate-coated
T6 chain: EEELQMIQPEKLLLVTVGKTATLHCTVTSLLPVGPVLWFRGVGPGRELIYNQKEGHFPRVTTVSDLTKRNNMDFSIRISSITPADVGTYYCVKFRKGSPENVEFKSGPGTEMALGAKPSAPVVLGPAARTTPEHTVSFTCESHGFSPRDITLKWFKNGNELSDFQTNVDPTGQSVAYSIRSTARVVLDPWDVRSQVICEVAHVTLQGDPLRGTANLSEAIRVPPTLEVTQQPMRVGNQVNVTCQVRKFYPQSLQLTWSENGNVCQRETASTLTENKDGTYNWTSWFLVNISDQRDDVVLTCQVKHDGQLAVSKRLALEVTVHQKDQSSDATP
Method: as §3

[5] = molecular target: T7, cynomolgus monkey SIRPα extracellular domain, monomeric (cynomolgus monkey, UniProt A0A2K5VYQ9 31-372); assay: as above
T7 construct: extracellular domain; also called Cyno SIRPα
Method: as §3

[6] = molecular target: T8, Human SIRPγ conjugated to an Fc region (human); assay: BLI blocking; 200 nM antibody pre-incubated with 20 nM SIRPγ-Fc, binding to immobilised CD47-His (competitor), % of response of SIRPγ-Fc alone
T8 construct: also called SIRPγ-Fc; SIRP-Fc; not shown: Fc region

human SIRPβ1-His monomer = molecular target: T9, human SIRPβ1-His monomer (human, UniProt O00241 30-371); assay: BLI (Octet); antibody on anti-mouse IgG capture tip, SIRP-His monomer at 100, 33.3, 11.1 nM, 1:1 fit, mean KD
T9 construct: 'SIRP-His monomer protein' of the Octet assay; also called SIRP-His; not shown: His tag
Method: as §1

[7] = molecular target: T10, human SIRPα V1 extracellular domain, monomeric (human, UniProt P78324 31-373); assay: ELISA, extracellular domain coated at 1 µg/mL, purified antibody titrated, anti-rat IgG, chemiluminescence
T10 construct: also called hSIRPα V1
Method: as §3, with “1” for “2”, “SIRPα” for “of each of the SIRPs”, “IgG” for “IgG or an anti-mouse IgG”

human SIRPγ-His monomer [8] = molecular target: T2, human SIRPγ-His monomer; assay: BLI (Octet); antibody on anti-mouse IgG capture tip, SIRP-His monomer; no dissociation seen in 600 s
Method: as §1

[9] = molecular target: T10, human SIRPα V1 extracellular domain, …; assay: SPR (Biacore); antibody captured by anti-IgG on chip, monomeric SIRPα extracellular domain as analyte, 1:1 model
Method: (§4) Selected antibodies were tested for their affinities to two hSIRPα variants (V1 and V2), and to cynomolgus monkey (herein referred to as “cyno”) SIRPα. The affinities of these SIRP antibodies were determined using surface plasmon resonance. The SIRP antibodies were flowed onto a chip and captured by an anti-mouse IgG or an anti-human IgG covalently coupled to the surface of the chip. A three-point titration of the extracellular binding domain of hSIRPα was performed per the manufacturer's recommended protocols.

[10] = molecular target: T7, cynomolgus monkey SIRPα extracellular …; assay: as above
Method: as §4

Human SIRPγ CHO [11] = molecular target: T4, Human SIRPγ CHO; assay: flow cytometry, stably transfected CHO cells, antibody titrated, labelled anti-human IgG, MFI
Method: as §2

[12] = molecular target: T11, human SIRPα V2 extracellular domain, monomeric (human, UniProt P78324 31-370); assay: SPR (Biacore); antibody captured by anti-IgG on chip, monomeric SIRPα extracellular domain as analyte, 1:1 model
T11 construct: also called hSIRPα V2
Method: as §4

Human SIRPγ [13] = molecular target: T6, Human SIRPγ; assay: ELISA, extracellular domain coated at 1 µg/mL, purified antibody titrated, anti-human IgG, chemiluminescence
Method: as §3, with “1” for “2”, “SIRPα” for “of each of the SIRPs”, “IgG” for “IgG or an anti-mouse IgG”
(§5) FIGS. 3A-3C show binding curves of SIRP antibodies and two isotype controls with human Fc to human SIRPα V1, human SIRPβ1, human SIRPγ and cynomolgus monkey SIRPα by ELISA. […] Isotype control 1 was an unrelated human IgG1 antibody with irrelevant CDRs. Isotype control 2 was the same as isotype control 1 but contained the same amino acid substitutions in the Fc region as some of the selected SIRP antibodies for increased FcγR binding (referring to Table 11). DNA was transiently transfected into CHO cells for 7 days. Antibodies were purified by Protein A from cell supernatants and analyzed in a titration via ELISA as previously described in FIGS. 2A-2B using an anti-human IgG antibody as the detection antibody.

[14] = molecular target: T10, human SIRPα V1 extracellular domain, …; assay: as above
Method: as §3, with “1” for “2”, “SIRPα” for “of each of the SIRPs”, “IgG” for “IgG or an anti-mouse IgG”
as §5

B2: Antibody 11 (antibody, V domains shown)
VH: EVQLVESGGGLVQPGGSLRLSCAASGFTFSSYWMHWVRQAPGKGLVWVSRIHNDGSRTSYADSVKGRFTISRDNAKNTLYLQMSSLRAEDTAVYYCTRDPPPYDILTGYPFDYWGQGTLVTVSS
VL: DIQMTQSPSSVSASVGDRVTITCRASQDISSWLAWFQQKPGKAPKLLIYGASSLQSGVPSRFSGSGSGTDFTLTISSLQPEDFATYYCQEANSFPYTFGQGTKLEIK
notes: Human variable region, rat IgG2b Fc; from hybridoma
Kd [1]: 3.74 nM | Kd (human SIRPβ1-His monomer): 61.9 nM | Kd (human SIRPγ-His monomer [2]): 13.3 nM | binding result (Human SIRPβ1/DAP12 CHO): binds | binding result (Human SIRPγ CHO [3]): binds | EC50 (read off the curve) [7]: ~0.1 µg/mL | binding result (Human SIRPβ1): binds | binding result (Human SIRPγ [4]): binds | SIRPγ-CD47 Response (%) [6]: -3.8%

B3: Antibody 13 (antibody, V domains shown)
VH: EVQMLESGGGLVQPGGSLRLSCAASGFTFSSYAMSWVRQAPGKGLEWVSAISGSGSSTHYADSVKGRFTISRDNSKNTLYLQMNSLRAEDTAVYYCAAYSGSYYYYGMDVWGQGTTVTVSS
VL: EIVMTQSPATLSVSPGERATLSCRASQSVSRNLAWYQQKSGQAPRLLIYGASTRATGIPARFSGSGSGTEFTLTISSLQSEDFAGYYCQQYNNWPYTFGQGTKLEIK
notes: as for B2
Kd (human SIRPγ-His monomer [8]): < 0.001 nM | Kd [1]: 0.922 nM | Kd [9]: 12.6 nM | Kd [10]: 16.7 nM | SIRPγ-CD47 Response (%) [6]: 111%

B6: Antibody 12 (antibody, V domains shown)
VH: B3 VH with M4V
VL: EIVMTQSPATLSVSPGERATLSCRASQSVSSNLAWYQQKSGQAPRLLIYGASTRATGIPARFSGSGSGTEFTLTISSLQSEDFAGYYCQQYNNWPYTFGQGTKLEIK
notes: as for B2
Kd (human SIRPγ-His monomer [8]): < 0.001 nM | Kd [1]: 5.31 nM | binding result (Human SIRPβ1/DAP12 CHO): binds | binding result (Human SIRPγ CHO [3]): binds | binding result (Human SIRPβ1): binds | binding result (Human SIRPγ [4]): binds | SIRPγ-CD47 Response (%) [6]: 120%

Now from value to binder:

Kd [1]: 0.244 nM | Kd (human SIRPγ-His monomer [2]): 54.4 nM | binding result (Human SIRPβ1/DAP12 CHO): binds | EC50 (read off the curve) (Human SIRPγ CHO [3]): ~2 µg/mL | binding result (Human SIRPβ1): binds | EC50 (read off the curve) (Human SIRPγ [4]): ~0.2 µg/mL | EC50 (read off the curve) [5]: ~0.1 µg/mL | SIRPγ-CD47 Response (%) [6]: 129%
B1: Antibody 15 (antibody, V domains shown)
VH: QIQLVQSGPELKKPGETVKISCKGSGYTFRNFGMNWVKQAPGMGLKWMVWIDTNTGEPTYAEEFKGRFAFSLETSASTAYLQINNLKNEDTATYFCARSRGNYFAMEYWGQGTSVTVSS
VL: DIKMTQSPSSMYASLGERVTVTCKASQDINRYLSWFQQKPGKSPKTLIYRANRLVDGVPSRFSGSGSGQDYSLTISSLEYEDMGFYYCLQYDEFPFTFGSGTKLEIK
notes: Mouse variable region, mouse IgG2a Fc; from hybridoma

EC50 (read off the curve) (Human SIRPγ CHO [11]): ~0.7 µg/mL | Kd [9]: 11.4 nM | Kd [12]: 9.09 nM | Kd [10]: 12.6 nM | EC50 (read off the curve) (Human SIRPγ [13]): ~0.04 µg/mL
B4: Antibody 25 (antibody, V domains shown)
VH: B3 VH
VL: B3 VL
notes: Variable regions of Antibody 13

Kd [9]: 8.32 nM | Kd [12]: 10.3 nM | Kd [10]: 11.1 nM | EC50 (read off the curve) (Human SIRPγ [13]): ~0.05 µg/mL | EC50 (read off the curve) [14]: ~0.06 µg/mL
B5: Antibody 29 (antibody, V domains shown)
VH: B3 VH
VL: B3 VL
